In patent US20250388694A1 (BOOSTIMMUNE, published 2025):
Positions count from the first letter of the chain named.

B1: Ab16 (antibody, V domains shown)
VH: QVQLQQSGPGLVKPSQTLSLTCAISGDSVSSNSAAWNWIRQSPSRGLEWLGRTYYKSKWYNDYAVSVKSRMTINPDTSKNQFSLQLNSVTPEDTAVYYCARGGSAVFDYWGQGTLVTVSS
VL: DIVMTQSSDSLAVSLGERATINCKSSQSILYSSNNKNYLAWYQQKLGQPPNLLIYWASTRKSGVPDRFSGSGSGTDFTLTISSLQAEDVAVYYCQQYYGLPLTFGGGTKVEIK
notes: also called antibody Ab16
B2: Ab8 (antibody, V domains shown)
VH: QVQLVQSGAEVKKPGASVKVSCKASGYTFFSYAMHWVRQAPGQRLEWMGWINAGNGNTKYSQKFQDRVTITRDTSATTAYMELSSLRSEDTAVYYCASWVFDYWGQGTPVTVSS
VL: DIVMTQTPLSSLVTLGQPASISCRSSQSLVHRDGNTYLSWLQQRPGQPPRLLIYKISNRFFGVPDRFSGSGAGTDFTLKISRVEAEDVGVYYCMQATQFPHTFGQGTKLEIK
notes: From Beacon screening; also called antibody Ab8
B3: Ab10 (antibody, V domains shown)
VH: not shown
VL: QSVVTQPPSVSAAPGQKVTISCSGSSSNIGNKKVSWYQQLPVTAPKLLIYDDNKRPSGIPDRFSGSKSGTSATLGITGLQTGDEADYYCATWDSSLRAVVFGGGTKLTVL
notes: also called antibody Ab10; parent antibody
B4: Ab20 (antibody, V domains shown)
VH: QVQLQQSGPGLVKPSQTLSLTCAISGDSVSSSSAAWNWIRQSPSRGLEWLGRTFYRSKWYNDYAESVKSRITINADTSKNQFSLQLNSVTPEDTAVYYCARRLTIVRGVMRGGMDVWGQGTTVTVSS
VL: DIVMTQSPDSLTGSLDERATINCKSSQNLLYSANNKDYIAWYQQKPGQSPKLLIYWASIRYSGVPDRFSGSGSGTDFTLTISSLQAEDVAVYYCQQYFSTPWTFGQGTKVEIK
notes: also called antibody Ab20
B5: Ab12 (antibody, V domains shown)
VH: QVQLVQSGAEVKKPGASVKVSCKASGYTFTSHAVHWVRQAPGQRLEWMGWINAGKGNTKYSQKFQGRVTITRDTSATTAYMELSSLRSEDTAVYYCARGRAVAFDPWGQGTLVTVSS
VL: RSALTQPPSASGSPGQSVTVSCTGTNSDIGGYNYVSWYKQHPGNAPKLMIYEVNKRPSGVPDRFSGSKSGNTASLTVSGLQTEDEADYYCASYAGDNNLVFGGGTKLTVL
notes: also called antibody Ab12

Assays:
[1] = target: T1, Human TCTP (translationally controlled tumor protein) (human, UniProt P13693 1-172); test: ELISA, selection of hybridoma antibodies
T1 construct: also called HRF; Tpt1
T1 sequence: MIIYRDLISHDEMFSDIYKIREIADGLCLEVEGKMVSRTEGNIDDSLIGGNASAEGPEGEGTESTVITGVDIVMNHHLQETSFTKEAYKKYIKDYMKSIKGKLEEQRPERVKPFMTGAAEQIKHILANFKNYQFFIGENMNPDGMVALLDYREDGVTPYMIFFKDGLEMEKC

[2] = target: T1, Human TCTP (translationally controlled …); test: SPR, Biacore 8K, human TCTP immobilised on CM5 chip, antibody as analyte, 1:1 model
Procedure: The antigen binding capacity of antibodies selected in Example 1 was analyzed using a SPR technique. The device used was Biacore 8K (Ge Healthcare). Human TCTP was immobilized on a chip, and antibodies were shed at 6 or 7 different concentrations. A CM5 chip (GE Healthcare, Cat. 29-1275-56), a regeneration buffer (10 mM glycine-HCl (GE Healthcare)), and a driving buffer HBS-EP+, and the like were used. For kinetic analysis, the binding time was set to 100 or 120 seconds, the flow rate was set to 30 or 50 μl/min in the binding phase, and in the dissociation phase, the dissociation time was set to 300 or 360 seconds, and the flow rate was set to 30 or 50 μl/min. The fitting was carried out using a 1:1 combined model, and BIACore Evaluation Software (GE healthcare) was used as the evaluation software.

[3] = target: T1, Human TCTP (translationally controlled …); test: competition ELISA: human TCTP coated at 1 µg/ml, 150 nM TLR2 plus titrated antibody, bound TLR2 detected; % inhibition of TLR2-TCTP binding
[4] = target: T1, Human TCTP (translationally controlled …); test: ELISA, human TCTP coated at 1 µg/ml, antibody titrated, OD 450 nm
Procedure: ELISA was carried out to quantitatively analyze the binding capacity of selected antibodies to antigens. To this end, human TCTP was attached to an ELISA plate at a concentration of 1 μg/ml and then treated with antibodies of various concentrations to check the relative binding capacity. As a result of the measurement, all of antibodies Ab1, Ab2, Ab3, Ab4, Ab5, Ab6, Ab7, Ab8, Ab9, Ab12, Ab13, Ab14, Ab15, Ab17, Ab18, Ab19, Ab20, Ab21, and Ab22 were confirmed to bind well to human TCTP (FIGS. 1a and 1b).

[5] = target: T2, mouse TCTP in which the 13th leucine was replaced with methionine (mouse, UniProt P63028 1-172); test: ELISA on mouse TCTP mutants
T2 construct: One of several mouse-to-human replacement mutants; also called mouse TCTP L13M
T2 sequence (looked up): T1 sequence with N42A, I67V, I99L, R107K, K130N, Y159F

[6] = target: T3, mouse TCTP (mouse, UniProt P63028 1-172); test: ELISA on mouse TCTP, binder titrated as scFv (axis [scFv] Log(nM)), OD450 [panel Mouse TCTP]
T3 sequence (looked up): T1 sequence with M13L, N42A, I67V, I99L, R107K, K130N, Y159F

Binder	binding result [1]	Kd [2] [nM]	IC50 (read off the curve) [3] [nM]	EC50 (read off the curve) [4] [µg/mL]	binding result [5]	binding result [6]
B1	binds					
B2		14	~6	~0.02		
B3		0.224			binds	binds
B4		0.704	~10			
B5		0.168	~10			
